Source: paper PMC1266349, “Nonnatural amino acid incorporation into the methionine 214 position of the metzincin Pseudomonas aeruginosa alkaline protease” (BMC Biochemistry, 2005)

Tested on: N=C(N)NCCC[C@H](NC(=O)OCc1ccccc1)C(=O)N[C@@H](CCCNC(=N)N)C(=O)Nc1ccc([N+](=O)[O-])cc1
Test: purified protein
Settings: 20 mM HEPES, 100 μg enzyme per assay; revised conditions, unlabelled recombinant protein

AprA (alkaline protease from Pseudomonas aeruginosa), mature full-length (Pseudomonas aeruginosa PAO1)
Km: 15.4 ± 0.9 µM | kcat: 0.0095 ± 0.00033 s⁻¹
